Legend:
[1] = test system: fetal bovine serum (FBS); test: Band shift of AMPs by fetal bovine serum; type: binding; settings: 10–40% FBS; AMP 4 μg; PC buffer, room temperature, 30 min; horizontal native 8% PAGE
Procedure: (§1) Various AMPs (4 μg each) were incubated with fetal bovine serum (FBS) components at room temperature in 10 μl PC buffer for 30 min and subjected to horizontal native 8% PAGE, pH8.0 or pH8.8, and Coomassie Blue staining.

[2] = molecular target: T1, protein B (α1-antitrypsin) (Bos taurus, UniProt P34955); test: Band shift of AMPs by protein B; type: binding, bovine; design: The homogeneities of collected protein A (albumin), protein B (α1-antitrypsin), protein C (serotransferrin) and protein D complex; from tissue; host or cells: fetal bovine serum (70% ammonium sulfate fraction, FPLC Mono Q); settings: AMP 4 μg; protein 10 μg (Suppl. Fig. 3a); PC buffer, room temperature, 30 min; 8% horizontal native PAGE
T1 sequence (P34955 25-416): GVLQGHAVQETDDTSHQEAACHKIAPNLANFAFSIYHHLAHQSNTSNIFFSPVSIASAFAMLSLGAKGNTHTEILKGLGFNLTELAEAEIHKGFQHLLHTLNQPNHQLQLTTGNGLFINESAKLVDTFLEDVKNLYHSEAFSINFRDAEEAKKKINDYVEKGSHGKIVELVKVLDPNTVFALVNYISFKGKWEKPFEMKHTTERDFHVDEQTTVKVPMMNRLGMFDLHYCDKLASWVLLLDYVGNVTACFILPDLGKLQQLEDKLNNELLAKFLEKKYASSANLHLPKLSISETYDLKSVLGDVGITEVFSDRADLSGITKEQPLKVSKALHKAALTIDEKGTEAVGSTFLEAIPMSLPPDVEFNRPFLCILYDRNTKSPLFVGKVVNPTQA
Procedure: as §1

[3] = molecular target: T2, protein D (albumin and α1-antitrypsin complex) (Bos taurus, UniProt P02769+P34955); test: Band shift of AMPs by protein D; type: binding, bovine; settings: AMP 4 μg; protein 10 μg (Suppl. Fig. 3a); PC buffer, room temperature, 30 min; 8% horizontal native PAGE
T2 construct: The active components were further purified by fast performance liquid chromatography (FPLC) Mono Q and S12 column chromatography from the 70% saturated fraction; from tissue; host or cells: fetal bovine serum (70% ammonium sulfate fraction, FPLC Mono Q and Superose 12)
T2 sequence (P02769 25-607, one chain of several): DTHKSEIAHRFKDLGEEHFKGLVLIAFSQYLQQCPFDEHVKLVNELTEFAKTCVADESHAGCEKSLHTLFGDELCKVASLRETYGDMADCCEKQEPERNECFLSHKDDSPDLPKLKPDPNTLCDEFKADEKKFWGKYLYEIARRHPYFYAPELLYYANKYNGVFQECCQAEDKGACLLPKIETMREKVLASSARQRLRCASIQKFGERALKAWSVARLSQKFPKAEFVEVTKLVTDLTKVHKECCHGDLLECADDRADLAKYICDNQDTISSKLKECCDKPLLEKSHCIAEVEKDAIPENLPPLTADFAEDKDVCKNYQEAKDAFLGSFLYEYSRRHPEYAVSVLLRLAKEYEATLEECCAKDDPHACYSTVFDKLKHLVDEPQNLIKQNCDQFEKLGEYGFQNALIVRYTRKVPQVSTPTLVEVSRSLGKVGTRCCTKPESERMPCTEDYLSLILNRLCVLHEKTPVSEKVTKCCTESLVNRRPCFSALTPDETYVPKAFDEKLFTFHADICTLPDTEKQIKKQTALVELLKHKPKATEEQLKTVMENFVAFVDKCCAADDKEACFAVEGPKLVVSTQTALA

[4] = test system: Apo-AI; settings: cited from earlier work
Source text: In addition to protein D, the serum protein apolipoprotein AI (Apo-AI) was also pulled down from crude fetal bovine serum by immobilized TP4-A12I,A15I, but in a less amount (Fig. 2a). The Apo-AI with Mr = 28,080 Da is the major constituent of high-density lipoprotein (HDL), which is involved in the removal of cholesterol from peripheral tissues and its catabolism. […] The amount of Apo-A1 in fetal bovine serum was much less than that of protein D (Fig. 8a, b). Int ...

[5] = test system: Escherichia coli K-12 (MG1655); test: Antimicrobial (bactericidal) activity against E. coli, effect of serum or serum proteins; type: cell-based; settings: 5% (v/v) FBS in PBS, 37 °C; remaining viable cells (cfu)
Procedure: The Gram-negative bacteria Escherichia coli K-12 (MG1655) was cultured and plated in/on Luria–Bertani broth/agar plate (Merck Millipore, Darmstadt, Germany). The Gram-positive Staphylococcus aureus (ATCC 6538P) was cultured and plated in tryptic soy broth/agar (BD, MD, USA). The fungus Candida albicans (ATCC 14,053) was cultured and plated in YM broth/agar (BD, MD, USA). The bacteria were grown overnight, washed, and diluted 1:2000 in phosphate buffered saline (PBS), pH 7.5 or DMEM (Life Biotech, California, USA), pH 7.4. Bacteria (ca. 1 × 10^6 colony-forming units, cfu) were mixed with antimicrobial peptides (AMP) in 100 μl PBS and incubated at 37 °C (for bacteria) and at 30 °C (for fungus). Serial dilutions of each AMP-treated bacteria in PBS/DMEM supplemented with FBS were prepared and plated for the determination of remaining viable cells (expressed as cfu). At least three independent experiments were performed for each assay to determine the average value with standard deviation. MBC was defined as the lowest AMP concentration that kills 99.9% of the original inoculum.

## LL37: human AMP LL37 [reference compound]
[1]
  mobility of AMP in band shift assay with FBS: retarded
[2]
  binding to protein B (band shift): not by protein A and protein B
[3]
  binding to protein D (band shift): also bound by protein D
[4]
  effect of Apo-AI on antimicrobial and cytotoxic activities: inhibits its antimicrobial and cytotoxic activities
[5]
  effect of FBS on antimicrobial activity against E. coli: serum-mediated repression

From PMC7809101, “Fetal bovine serum albumin inhibits antimicrobial peptide activity and binds drug only in complex with α1-antitrypsin” (Scientific Reports, 2021)
